Biological target: human CD137 expressed on Jurkat cells (human, UniProt Q07011 24-255)
Experiment: cell-based or functional assay

IC50 (ng/ml), activation of NF-kB reporter gene, HCC827 +IFNg, 6 h, with HSA	IC50 (ng/ml), activation of NF-kB reporter gene, HCC827 +IFNg, 24 h, with HSA	Binder
6.44 ng/mL	4.67 ng/mL	PRO1480 (other) DIQMTQSPASLSASVGDRVTITCQASQSIGTYLAWYQQKPGKPPKLLIYRAFILASGVPSRFSGSGSGTDFTLTISSLQPEDFATYYCQSNFYSDSTTIGPNAFGTGTKVTVLGGGGGSEVQLVESGGGLVQPGGSLRLSCAASGFSFSANYYPCWVRQAPGKGLEWIGCIYGGSSDITYDANWTKGRFTISRDNSKNTVYLQMNSLRAEDTAVYYCARSAWYSGWGGDLWGQGTLVTVSSGGGGSGGGGSGGGGSGGGGSIQMTQSPSSLSASVGDRVTITCQASQSISNRLAWYQQKPGKAPKLLIYSASTLASGVPSRFSGSGSGTDFTLTISSLQPEDFATYYCQSTYYGNDGNAFGTGTKVTVLGGGGGSEVQLVESGGGLVQPGGSLRLSCAASGFSFNSDYWIYWVRQAPGKGLEWIASIYGGSSGNTQYASWAQGRFTISRDNSKNTVYLQMNSLRAEDTAVYFCARGYVDYGGATDLWGQGTLVTVSSGGGGSGGGGSIQMTQSPSSLSASVGDRVTITCQSSESVYSNNQLSWYQQKPGQPPKLLIYDASDLASGVPSRFSGSGSGTDFTLTISSLQPEDFATYYCAGGFSSSSDTAFGGGTKLTVLGGGGGSGGGGSGGGGSGGGGSEVQLVESGGGLVQPGGSLRLSCAASGFSLSSNAMGWVRQAPGKGLEYIGIISVGGFTYYASWAKGRFTISRDNSKNTVYLQMNSLRAEDTATYFCARDRHGGDSSGAFYLWGQGTLVTVSS
7.22 ng/mL	5.51 ng/mL	PRO1481 (other) DIQMTQSPASLSASVGDRVTITCQASQSIGTYLAWYQQKPGKPPKLLIYRAFILASGVPSRFSGSGSGTDFTLTISSLQPEDFATYYCQSNFYSDSTTIGPNAFGTGTKVTVLGGGGGSESQLVESGGGLVQPGGSLRLSCAASGFSFSANYYPCWVRQAPGKGLEWIGCIYGGSSDITYDANWTKGRFTISRDNSKNTVYLQMNSLRAEDTAVYFCARSAWYSGWGGDLWGPGTLVTVSSGGGGSGGGGSGGGGSGGGGSFQLTQSPSSLSASVGDRVTITCQASQSISNRLAWYQQKPGKPPKLLIYSASTLASGVPSRFSGSGSGTDFTLTISSLQPEDFATYYCQSTYYGNDGNAFGTGTKVTVLGGGGGSEVQLVESGGGLVQPGGSLRLSCAASGFSFNSDYWIYWVRQAPGKGLEWIASIYGGSSGNTQYASWAQGRFTISRDNSKNTVYLQMNSLRAEDTAVYFCARGYVDYGGATDLWGQGTLVTVSSGGGGSGGGGSIQMTQSPSSLSASVGDRVTITCQSSESVYSNNQLSWYQQKPGQPPKLLIYDASDLASGVPSRFSGSGSGTDFTLTISSLQPEDFATYYCAGGFSSSSDTAFGGGTKLTVLGGGGGSGGGGSGGGGSGGGGSEVQLVESGGGLVQPGGSLRLSCAASGFSLSSNAMGWVRQAPGKGLEYIGIISVGGFTYYASWAKGRFTISRDNSKNTVYLQMNSLRAEDTATYFCARDRHGGDSSGAFYLWGQGTLVTVSS

— EP3636320A1 (Numab Therapeutics AG, dated 2020)
